No end group written: not given here.
What was measured:
[1] = target: T1, anti-CD28 Fab (SEQ ID NOs: 202, 203); experiment: binding ELISA, peptide captured, anti-CD28 Fab titrated
T1 construct: biotinylated when captured in the phage ELISAs

[2] = target: anti-CD28 Fab (SEQ ID NOs: 202, 203); experiment: phage binding ELISA; biotinylated anti-CD28 Fab captured on neutravidin plate, clonal phage supernatant, anti-M13-HRP detection;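 further: before crude clonal phage supernatants were added, wells were preincubated with CD28 antigen in blocking buffer or with blocking buffer only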
Ab-1 [3] = target: T2, Ab-1; experiment: competition ELISA, peptide titrated vs 1 nM Ab-1 binding plate-bound CD28
T2 construct: also called anti-CD28 scFv harbored in Ab-1

Ab-1 [4] = target: T2, Ab-1; experiment: BLI (Octet), 200 nM peptide, 100 nM Ab-1;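 further: association and dissociation phases tracked in real time, with kinetics fitted to a 1:1 interaction model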
Ab-1 [5] = target: T2, Ab-1; experiment: binding ELISA, peptide captured, Ab-1 titrated

TCSAGATWPWPICL (cysteine pairing not given here; also: biotinylated, site not given here) [Peptide-89]
EC50 [1]: 2.1 nM

TCSAGATYTWPKCF (cysteine pairing not given here; also: biotinylated, site not given here) [Peptide-93]
EC50 [1]: 15.7 nM

ECGWEPGQHWRVCF [Phage-1238]
Anti-CD28 Fab (SEQ ID NOs: 202, 203) signal [2]: 0.82

TCAAGATWVWPTCF [Phage-1228]
Anti-CD28 Fab (SEQ ID NOs: 202, 203) signal [2]: 0.92

TCSAGAMYSWPLCI [Phage-1230]
Anti-CD28 Fab (SEQ ID NOs: 202, 203) signal [2]: 0.91

VCAAGAAYPWPACL [Phage-1226]
Anti-CD28 Fab (SEQ ID NOs: 202, 203) signal [2]: 0.93

TCSAGAMYNWPECF [Phage-1229]
Anti-CD28 Fab (SEQ ID NOs: 202, 203) signal [2]: 0.92

TCAAGATYEWPSCI [Phage-1234]
Anti-CD28 Fab (SEQ ID NOs: 202, 203) signal [2]: 0.86

SCAAGATYEWPTCL [Phage-1239]
Anti-CD28 Fab (SEQ ID NOs: 202, 203) signal [2]: 0.81

SCAAGATYKWPACF [Phage-1240]
Anti-CD28 Fab (SEQ ID NOs: 202, 203) signal [2]: 0.8

TCAAGASWDWPFCF [Phage-1237]
Anti-CD28 Fab (SEQ ID NOs: 202, 203) signal [2]: 0.82

LCAAGATYPWPLCL (cysteine pairing not given here; also: biotinylated, site not given here) [Peptide-96]
EC50 [1]: 5.6 nM

WCSAVFSYQWPPCF [Phage-1242]
Anti-CD28 Fab (SEQ ID NOs: 202, 203) signal [2]: 0.78

SCAAGAHWSWPACL [Phage-1223]
Anti-CD28 Fab (SEQ ID NOs: 202, 203) signal [2]: 0.97

QCAAGFSYTWPECY [Phage-1231]
Anti-CD28 Fab (SEQ ID NOs: 202, 203) signal [2]: 0.9

MCAAGAMYNWPLCL [Phage-1224]
Anti-CD28 Fab (SEQ ID NOs: 202, 203) signal [2]: 0.95

ADWCPRDLWVHCFA (cysteine pairing not given here; also: biotinylated, site not given here) [Peptide-2]
IC50 (Ab-1 [3]): 2000 nM
Octet signal (Ab-1 [4]): 0.7
t1/2 (Ab-1 [4]): 3.1 min
EC50 (Ab-1 [5]): 75.9 nM

GDWCPRDLWVHCFA (cysteine pairing not given here; also: biotinylated, site not given here) [Peptide-8]
IC50 (Ab-1 [3]): 7060 nM
Octet signal (Ab-1 [4]): 0.479
t1/2 (Ab-1 [4]): 3.9 min
EC50 (Ab-1 [5]): 73.9 nM

HDWCPRDLWVHCFA (cysteine pairing not given here; also: biotinylated, site not given here) [Peptide-9]
IC50 (Ab-1 [3]): 2180 nM
Octet signal (Ab-1 [4]): 0.737
t1/2 (Ab-1 [4]): 3 min
EC50 (Ab-1 [5]): 45.4 nM

FDWCPRDLWVHCFA (cysteine pairing not given here; also: biotinylated, site not given here) [Peptide-13]
IC50 (Ab-1 [3]): 780 nM
Octet signal (Ab-1 [4]): 1.01
t1/2 (Ab-1 [4]): 3.3 min
EC50 (Ab-1 [5]): 39.3 nM

SDWCPRDLWVHCFA (cysteine pairing not given here; also: biotinylated, site not given here) [Peptide-15]
IC50 (Ab-1 [3]): 2630 nM
Octet signal (Ab-1 [4]): 0.551
t1/2 (Ab-1 [4]): 2.9 min
EC50 (Ab-1 [5]): 66.5 nM

VDWCPRDLWVHCFA (cysteine pairing not given here; also: biotinylated, site not given here) [Peptide-19]
IC50 (Ab-1 [3]): 4420 nM
Octet signal (Ab-1 [4]): 0.919
t1/2 (Ab-1 [4]): 2.9 min
EC50 (Ab-1 [5]): 32.5 nM

WDWCPRDLWVHCFA (cysteine pairing not given here; also: biotinylated, site not given here) [Peptide-17]
IC50 (Ab-1 [3]): 2800 nM
Octet signal (Ab-1 [4]): 1.15
t1/2 (Ab-1 [4]): 4.1 min
EC50 (Ab-1 [5]): 21.7 nM

IDWCPRDLWVHCFA (cysteine pairing not given here; also: biotinylated, site not given here) [Peptide-10]
IC50 (Ab-1 [3]): 2660 nM
Octet signal (Ab-1 [4]): 0.845
t1/2 (Ab-1 [4]): 3.1 min
EC50 (Ab-1 [5]): 44.9 nM

PDWCPRDLWVHCFA (cysteine pairing not given here; also: biotinylated, site not given here) [Peptide-14]
IC50 (Ab-1 [3]): 8340 nM
Octet signal (Ab-1 [4]): 0.328
t1/2 (Ab-1 [4]): 3.4 min
EC50 (Ab-1 [5]): 102 nM

DDWCPRDLWVHCFA (cysteine pairing not given here; also: biotinylated, site not given here) [Peptide-5]
IC50 (Ab-1 [3]): 4460 nM
Octet signal (Ab-1 [4]): 0.461
t1/2 (Ab-1 [4]): 4.2 min
EC50 (Ab-1 [5]): 86.8 nM

YDWCPRDLWVHCFA (cysteine pairing not given here; also: biotinylated, site not given here) [Peptide-18]
IC50 (Ab-1 [3]): 3250 nM
Octet signal (Ab-1 [4]): 0.849
t1/2 (Ab-1 [4]): 2.9 min
EC50 (Ab-1 [5]): 32.2 nM

NDWCPRDLWVHCFA (cysteine pairing not given here; also: biotinylated, site not given here) [Peptide-4]
IC50 (Ab-1 [3]): 5030 nM
Octet signal (Ab-1 [4]): 0.434
t1/2 (Ab-1 [4]): 4 min
EC50 (Ab-1 [5]): 84.3 nM

LDWCPRDLWVHCFA (cysteine pairing not given here; also: biotinylated, site not given here) [Peptide-11]
IC50 (Ab-1 [3]): 630 nM
Octet signal (Ab-1 [4]): 1.37
t1/2 (Ab-1 [4]): 4.5 min
EC50 (Ab-1 [5]): 23.4 nM

SCAAGASYSWPLCF [Phage-1225]
Anti-CD28 Fab (SEQ ID NOs: 202, 203) signal [2]: 0.95

RCKAGVPYKWPMCL [Phage-1233]
Anti-CD28 Fab (SEQ ID NOs: 202, 203) signal [2]: 0.87

TCSAGAHYPWPMCL [Phage-1227]
Anti-CD28 Fab (SEQ ID NOs: 202, 203) signal [2]: 0.93

TCAAGATWSWPACF (cysteine pairing not given here; also: biotinylated, site not given here) [Peptide-94]
EC50 [1]: 4.5 nM

TCAAGAAWPWPQCL (cysteine pairing not given here; also: biotinylated, site not given here) [Peptide-92]
EC50 [1]: 2.6 nM

TCAAGAAWGWPLCF (cysteine pairing not given here; also: biotinylated, site not given here) [Peptide-95]
EC50 [1]: 5.6 nM

LCEAGFNYDWPRCL [Phage-1236]
Anti-CD28 Fab (SEQ ID NOs: 202, 203) signal [2]: 0.85

TCAAGAKYVWPLCF [Phage-1235]
Anti-CD28 Fab (SEQ ID NOs: 202, 203) signal [2]: 0.85

LCAAGASWPWPVCL (cysteine pairing not given here; also: biotinylated, site not given here) [Peptide-90]
EC50 [1]: 13.1 nM

TCSAGASYPWPLCL (cysteine pairing not given here; also: biotinylated, site not given here) [Peptide-91]
EC50 [1]: 5.3 nM

TCSAGAAYPWPLCL (cysteine pairing not given here; also: biotinylated, site not given here) [Peptide-97]
EC50 [1]: 4.4 nM

SCSAGAMWLWPECF [Phage-1241]
Anti-CD28 Fab (SEQ ID NOs: 202, 203) signal [2]: 0.8

TCSAGATYKWPTCL [Phage-1222]
Anti-CD28 Fab (SEQ ID NOs: 202, 203) signal [2]: 0.97

WCAAFFHYPWPQCF [Phage-1232]
Anti-CD28 Fab (SEQ ID NOs: 202, 203) signal [2]: 0.87

— patent publication US20260274955A1 (JANUX THERAPEUTICS, published 2026)
